According to patent publication US20250179160A1 (OMEROS, published 2025):
Values belong to the binder of their own block, whether it stands above or below them.

Assays:
[1] = molecular target: T1, recombinant human Pro-Factor D (human, UniProt P00746 20-253); assay: ELISA: antibody titrated 3-fold from 3 ug/ml on plate coated with 1 ug/ml recombinant human pro-Factor D; HRP anti-mouse, rat or human secondary; OD450
T1 construct: also used for the endogenous pro-Factor D detected in 3MC patient serum; also called pro CFD; hPro-CFD

[2] = molecular target: T2, recombinant human mature Factor D (human, UniProt P00746 26-253); assay: ELISA: antibody titrated 3-fold from 3 ug/ml on plate coated with 1 ug/ml recombinant human mature Factor D; HRP anti-mouse, rat or human secondary; OD450
T2 construct: also called mature CFD; hCFD

[3] = molecular target: T1, recombinant human Pro-Factor D; assay: capture ELISA: recombinant Factor D captured by plate-bound goat polyclonal AF1824; hybridoma supernatant diluted two-fold; OD450
Description: Hybridoma supernatants were first screened for binding to immobilized recombinant human mature Factor D-His. […] ELISA plates were coated with polyclonal anti-human factor D antibody AF1824 (R&D Systems). Hybridoma supernatants were diluted two-fold in PBS, 0.05% Tween 20 (PBST). Supernatant from NS-1 myeloma cell line (NS-1 sup) was included as a matrix control to determine the level of assay background.

[4] = molecular target: T3, recombinant human mature Factor D, Strep tagged (human, UniProt P00746 26-253); assay: ELISA with hybridoma supernatant on immobilized antigen
T3 construct: also called recombinant human mature CFD-Strep tagged; recombinant human mature Factor D-Streptavidin; not shown: Strep tag

[5] = molecular target: T2, recombinant human mature Factor D; assay: BLI (Octet ForteBio), 20 nM human IgG4 antibody on anti-human sensors, antigen 111 nM
Description: Affinities of candidate antibodies to human mature-Factor-D versus human pro-Factor D were determined as follows.
Association and dissociation constants were determined by Octet Fortebio.

[6] = molecular target: T1, recombinant human Pro-Factor D; assay: sandwich ELISA: Factor D titrated (ug/ml Df) on plate-bound goat polyclonal AF1824; purified recombinant human IgG4 antibody as detection antibody; OD450
Excerpt: An HRP-tagged anti-mouse secondary antibody followed by TMB substrate was used to develop the assay.

[7] = molecular target: T4, recombinant human mature Factor D-His (human, UniProt P00746 26-253); assay: ELISA: antibody titrated from 3 ug/ml on 1 ug/ml plate-immobilized His-tagged Factor D; labeled goat anti-mouse IgG Fc; OD450
T4 construct: also called recombinant human mature CFD-His; not shown: His tag

[8] = molecular target: T5, recombinant human Pro-Factor D-His (human, UniProt P00746 20-253); assay: as above
T5 construct: also called recombinant human Pro-CFD-His; not shown: His tag

B1: 13A10, purified recombinant, human IgG4 (antibody, V domains shown)
VH: DVQLQESGPGLVKPSQSLSLTCTVTGYSITSDYAWNWIRQFPGNKLEWMGYISYIGGIGYNPSLKSRISITRDTSKNQFFLHLNSVTTGDTATYYCARNGAMDFWGQGISVTVSS
VL: DIVLTQSPASLAVSLGQRATISCKASQSVDYDGDSYMNWYQQKPGQPPKLLIYDASNLESGIPARFSGSGSGTDFTLNIHPVEEEDAATYYCQQSNEAPWTFGGGTKLEIKR
notes: Mouse variable regions on human IgG4 (S228P) and human kappa constant regions
EC50 (read off the curve) [1]: ~0.02 µg/mL
binding result [2]: no binding (tested: 3 ug/ml)

B3: 49G3, hybridoma supernatant (antibody, V domains shown)
VH: QVTLKESGPGILQSSQTLSLTCSFSGISLSSSGMGVSWIRQPSGKGLEWLAHIYWDDEKHYNPSLKSRLTISKDASRNQIFLKIISVDTADTATYYCALRYYGYNYVMHYWGQGTSVTVSS
VL: DVLMTQTPLSLPVSLGDQASISCRSSQSILHSNGNTYFEWYLQKPGQSPKLLIYKVSNRFSGVPDRFSGSGSGTDFTLKISRVEAEDLGVYYCFQGSHVPPTFGGGTKLEIKR
notes: Mouse hybridoma antibody
binding result [3]: no binding

B4: 11H1, hybridoma supernatant (antibody, V domains shown)
VH: EVQLVESGGGLVQPKGSLKLSCAASGFSFNTYAMNWVRQAPGKGLEWVARIRSKSNNYATHYADSVKDRFTISRDDSESMLYLQMNNLKTEDTAMYYCVRQGYYWYFDVWGTGTTVTVSS
VL: DVLMTQTPLSLPVSLGDQASISCRSSQSIVHSNGNTYLEWYLQKPGQSPKLLIYTVSNRFSGVPDRFSGSGSGTDFTLKISRVEAEDLGVYYCFQGSHVPWTFGGGTKLEIKR
notes: Mouse hybridoma antibody
binding result [4]: binds

B8: 10G1, purified recombinant, human IgG4 (antibody, V domains shown)
VH: QVTLKESGPGILQSSQTLSLTCSFSGVSLSSSGMGVSWIRQPSGKGLEWLAHIYWDDEKHYNPSLKSRLTISKGASRNQVFLKIISVDTADTATYYCALRYYGYNSIMHYWGQGASVTVSS
VL: DVLMTQTPLSLPVSLGDQASISCRSSESIVHSNGNTYLEWYLQKPGQSPKLLIYKVYNRFSGVPDRFSGSGSGTDFTLKISRVEAEDLGVYYCFQGSHVPPTFGGGTKLEIKR
notes: as for B1
Kd [5]: 0.731 nM
binding result [6]: no binding

B12: 3C5, recombinant purified, mouse IgG2a Fc (antibody)
heavy: EVKLVESGGGLVQPGGSLKLSCATSGFTFSDYGMAWVRQAPGKGPEWVAFISNLAYSFYYVDIVMGRFTISRENAKNTLYLEMSSLRSEDTAMYYCARVGLYGNFFMDYWGQGTSVTVSSAKTTAPSVYPLAPVCGDTTGSSVTLGCLVKGYFPEPVTLTWNSGSLSSGVHTFPAVLQSDLYTLSSSVTVTSSTWPSQSITCNVAHPASSTKVDKKIEPRGPTIKPCPPCKCPAPNLLGGPSVFIFPPKIKDVLMISLSPIVTCVVVDVSEDDPDVQISWFVNNVEVHTAQTQTHREDYNSTLRVVSALPIQHQDWMSGKEFKCKVNNKDLPAPIERTISKPKGSVRAPQVYVLPPPEEEMTKKQVTLTCMVTDFMPEDIYVEWTNNGKTELNYKNTEPVLDSDGSYFMYSKLRVEKKNWVERNSYSCSVVHEGLHNHHTTKSFSRTPGK
light: DIQMNQSPSSLSASLGDTITITCHASQNINVWLSWYQQKPGNIPELLIYKASNLHTGVPSRFSGNRSGTSFTLTISSLQPEDIGTYFCQQGQSYPLTFGAGTKLELRRADAAPTVSIFPPSSEQLTSGGASVVCFLNNFYPKDINVKWKIDGSERQNGVLNSWTDQDSKDSTYSMSSTLTLTKDEYERHNSYTCEATHKTSTSPIVKSFNRNEC
notes: Mouse IgG2a and mouse kappa constant regions
EC50 (read off the curve) [7]: ~0.06 µg/mL
EC50 (read off the curve) [8]: ~0.04 µg/mL

B13: 18F5, purified recombinant, human IgG4 (antibody, V domains shown)
VH: EVKLEESGGGLVQPGGSMKLSCVASGFTFGNYWMSWVRQSPEKGLEWVAEIRLKSDNYATHYAESVKGKFTISRDDSKSRLYLQMNSLRGEDTGLYYCTNAWFASWGQGTLVTVSA
VL: DIVMSQSPSSLAVSVGEKVTMSCMSSQSLLYSKDQKNYLAWYQQKPGQSPKLLIYWASTRESGVPDRFTGSGSGTDFTLTISSVKAEDLAVYYCLQYYTYPYTFGGGTKLEIKR
notes: as for B1
EC50 (read off the curve) [1]: ~0.03 µg/mL
binding result [2]: no binding (tested: 3 ug/ml)

B14: 2A4, purified recombinant, human IgG4 (antibody, V domains shown)
VH: EVKLEESGGGLVQPGGSMKLSCVASGFTFSTYWMSWVRQSPEKGLEWVAEIRLKSDNYATHYTESVKGKFTISRDDSKSRLYLQMNSLRVEDTGIYYCTNAWFAYWGQGTLVTVSA
VL: DIVMSQSPSSLAVSVGEKFTMSCKSSQSLLYSRDQKNYLAWYQQQPGQSPKLLIYWASTRESGVPDRFTGSGSGTDFTLTISSVKTEDLAVYYCLQYYSYPYTFGGGTKLEIKR
notes: as for B1
EC50 (read off the curve) [1]: ~0.03 µg/mL
binding result [2]: no binding (tested: 3 ug/ml)

Other lines, results leading:

binding result [3]: no binding
B2: 6G6, hybridoma supernatant (antibody, V domains shown)
VH: QITLKESGPGILQSSQTLSLTCSFSGISLTTSGMGVSWIRQPSGKGLEWLAHIYWDDEKHYHPSLKSRLTISKDASRNQVFFRILSVDTADTATYYCALRYYGYRSFMDYWGQGTSVTVSS
VL: DVLMTQSPLSLPVSLGDQASIFCRSNQSIVHSNGNTYFEWYLQKPGQSPKLLIYKVSNRFSGVPDRFSGSGSGTDFTLRISRVEAEDLGVYYCFQGSHVPPTFGGGTKLEIKR
notes: Mouse hybridoma antibody

Kd [5]: 24.1 nM
binding result [6]: no binding
B5: 27B3, purified recombinant, human IgG4 (antibody, V domains shown)
VH: QVTLKESGPGILQSSQTLSLTCSFSGISLNISGMGVSWIRQPSGKGLEWLAHIYWDDEKHYNPSLKRRLTISKDASRNQVFFRISSVDSADTATYYCALRYYGYGSIMDYWGHGTSVTVSS
VL: DVLMTQTPLSLPVSLGDQASISCRSSQSIVHSNGNTYFEWYLQKPGQSPKLLIYKVSNRFSGVPDRFSGSGSGTDFTLKISRVEAEDLGVYYCFQGSHVPPTFGGGTKLEIKR
notes: as for B1

binding result [3]: no binding
B6: 27B3, hybridoma supernatant (antibody, V domains shown)
VH: QVTLKESGPGILQSSQTLSLTCSFSGISLNISGMGVSWIRQPSGKGLEWLAHIYWDDEKHYNPSLKRRLTISKDASRNQVFFRISSVDSADTATYYCALRYYGYGSIMDYWGHGTSVTVSS
VL: DVLMTQTPLSLPVSLGDQASISCRSSQSIVHSNGNTYFEWYLQKPGQSPKLLIYKVSNRFSGVPDRFSGSGSGTDFTLKISRVEAEDLGVYYCFQGSHVPPTFGGGTKLEIKR
notes: Mouse hybridoma antibody

binding result [4]: binds
B7: 7H2, hybridoma supernatant (antibody, V domains shown)
VH: EVQVVESGGGLVRPKGSLKLSCAASGFSFNTYAMNWVRQAPGKGLEWVARIRSKSNNYATYYADSVKDRFTISRDDSESMLSLQMNNLKTEDTAMYYCVRQGYYWYFDVWGTGTTVTVSS
VL: DVLMTQTPLSLPVSLGDQASISCRSSQSIVHSNGNTYLEWYLQKPGQSPKLLIYTVSNRFSGVPDRFRGSGSGTDFTLKISRVEAEDLGVYYCFQGSHVPWTFGGGTKLEIKR
notes: Mouse hybridoma antibody

binding result [3]: no binding
B9: 58F5, hybridoma supernatant (antibody, V domains shown)
VH: QVTLKESGPGILQSSQTLSLTCSFSGISLNTSIMGVSWIRQPSGKGLEWLAHIYWDDEKHYNPSLKSRLTISKDASRNQVFLKIISVDTADTATYYCALRYYGYNYVMHYWGQGTSVTVSS
VL: DVLMTQTPLSLPVSLGDQASISCRSSQSIVHSNGNTYLEWYLQKPGQSPKLLIYKVSNRFSGVPDRFSGSGSGTDFTLKISRVEADDLGVYYCFQGSHVPPTFGGGTKLEIKR
notes: Mouse hybridoma antibody; also called 58GF5

binding result [3]: no binding
B10: 10G1, hybridoma supernatant (antibody, V domains shown)
VH: QVTLKESGPGILQSSQTLSLTCSFSGVSLSSSGMGVSWIRQPSGKGLEWLAHIYWDDEKHYNPSLKSRLTISKGASRNQVFLKIISVDTADTATYYCALRYYGYNSIMHYWGQGASVTVSS
VL: DVLMTQTPLSLPVSLGDQASISCRSSESIVHSNGNTYLEWYLQKPGQSPKLLIYKVYNRFSGVPDRFSGSGSGTDFTLKISRVEAEDLGVYYCFQGSHVPPTFGGGTKLEIKR
notes: Mouse hybridoma antibody

Kd [5]: < 0.001 nM
binding result [6]: no binding
B11: 58F5, purified recombinant, human IgG4 (antibody, V domains shown)
VH: QVTLKESGPGILQSSQTLSLTCSFSGISLNTSIMGVSWIRQPSGKGLEWLAHIYWDDEKHYNPSLKSRLTISKDASRNQVFLKIISVDTADTATYYCALRYYGYNYVMHYWGQGTSVTVSS
VL: DVLMTQTPLSLPVSLGDQASISCRSSQSIVHSNGNTYLEWYLQKPGQSPKLLIYKVSNRFSGVPDRFSGSGSGTDFTLKISRVEADDLGVYYCFQGSHVPPTFGGGTKLEIKR
notes: as for B1
